Values quoted from earlier work, collected in patent US9205345B2, “Spray-drying apparatus and methods of using the same” (Bend Research, Inc., priority 2010, dated 2015).

How the values were obtained:
[1] = not given; remark: listed apart in the source
[2] = not given; remark: listed apart in the source

| Molecule | solubility in water | Log P [1] | pKa [2] |
| --- | --- | --- | --- |
| CC(C)(C)NCC(O)c1ccc(O)c(CO)c1 (centres unmarked) [Active Agent 1, 4-[2-(tert-butylamino)-1-hydroxyethyl]-2-(hydroxymethyl)phenol, reference compound] | freely soluble in water | 0.11 | – |
| Peptide YY (PYY) [Active Agent 3] | soluble in water | – | – |
| insulin [Active Agent 2] | – | 0.22 | 5.39 |
